Measured values: patent US12391751B2, “Antibody against advanced glycation end products and use thereof” (Bloom Technology Corporation, priority 2018, dated 2025)

What was measured:
Type in all cases: binding
[1] = biological target: T1, reaction of the SJ-5 antibody with A-peak-BSA (Bos taurus, UniProt P02769); experiment: Cross-competition with HRP-labeled SJ-5 antibody by competitive ELISA (Example 33); conditions: competitor antibody 0.049 to 50 μg/mL
T1 construct: made in house
Experimental: A solution of A-peak-BSA prepared into 1 μg/mL in a coating solution was added at 100 μL/well to a 96-well microtiter plate (Costar) and incubated overnight at 4° C.
Each well after the immobilization treatment was washed three times with a washing solution (300 μL), and PBS containing 0.05% Tween 20 (PBS-T) and containing 0.5% gelatin dissolved therein (200 μL) was added thereto and left standing at room temperature for 1 hour.
The PB-1 antibody, a mouse IgG isotype control (Ctrl-mIgG, Thermo Fisher Scientific Inc.), and the anti-GA-pyridine antibody 2A2 (Cosmo Bio Co., Ltd.) were each diluted with PBS-T containing 0.1% gelatin to prepare 4-fold dilution series (0.049 to 50 μg/mL). Also, a HRP-labeled SJ-5 antibody (Example 4) was diluted 10000-fold with PBS-T containing 0.1% gelatin.
Each well treated with the blocking solution was washed three times with a washing solution (300 μL), and the sample solutions of 4-fold dilution series (50 μL each) and the HRP-labeled SJ-5 antibody dilution solution (50 μL) were added thereto, stirred with a plate mixer for 2 minutes, and then incubated at room temperature for 1 hour. […]
Absorbance was measured at a dominant wavelength of 450 nm and a sub-wavelength of 650 nm with a microplate reader (Cytation 5, BioTek Instrument Inc.), and the absorbance at the sub-wavelength was subtracted from the absorbance at the dominant wavelength.

CEL-AGEs-BSA = CEL-AGEs-BSA (Bos taurus, UniProt P02769); experiment: Specificity of PB-1 by competitive ELISA (Example 30); conditions: A-peak-BSA or Glycer-AGEs-BSA immobilized, competitor 10 μg/mL, PB-1 0.05 μg/mL
CEL-AGEs-BSA, sequence (P02769 25-607): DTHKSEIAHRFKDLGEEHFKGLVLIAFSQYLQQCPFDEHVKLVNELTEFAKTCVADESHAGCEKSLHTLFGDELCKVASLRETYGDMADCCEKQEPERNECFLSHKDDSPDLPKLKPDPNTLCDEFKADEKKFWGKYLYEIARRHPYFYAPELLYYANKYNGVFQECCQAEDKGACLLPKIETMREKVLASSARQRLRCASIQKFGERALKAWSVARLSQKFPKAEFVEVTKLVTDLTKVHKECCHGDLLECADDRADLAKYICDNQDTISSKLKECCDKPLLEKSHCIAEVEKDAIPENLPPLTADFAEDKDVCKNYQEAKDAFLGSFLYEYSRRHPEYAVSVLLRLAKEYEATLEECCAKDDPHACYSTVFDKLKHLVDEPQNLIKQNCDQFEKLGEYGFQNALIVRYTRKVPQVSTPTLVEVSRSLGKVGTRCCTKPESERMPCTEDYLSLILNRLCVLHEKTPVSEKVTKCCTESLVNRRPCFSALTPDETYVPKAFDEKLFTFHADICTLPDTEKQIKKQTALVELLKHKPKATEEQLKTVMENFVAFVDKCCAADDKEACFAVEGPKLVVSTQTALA
Experimental: (§1) A-peak-BSA or Glycer-AGEs-BSA prepared into a concentration of 1 μg/mL with a coating solution (Example 13) was added at 100 μL/well to a 96-well microtiter plate (Costar) and immobilized overnight at 4° C.
(§2) The plate was washed three times with PBS containing 0.05% (v/v) Tween 20 (PBS-T) and then blocked with PBS-T containing 0.5% (w/v) gelatin for 1 hour.
(§3) Bovine serum albumin (BSA), BSA containing AGEs derived from glucose (Glu-AGEs-BSA), BSA containing AGEs derived from fructose (Fru-AGEs-BSA), BSA containing AGEs derived from glycolaldehyde (Glycol-AGEs-BSA), BSA containing AGEs derived from glyceraldehyde (Glycer-AGEs-BSA), BSA containing NE-carboxyethyllysine (CEL-AGEs-BSA), BSA containing NE-carboxymethyllysine (CML-AGEs-BSA), BSA containing AGEs derived from glyoxal (GO-AGEs-BSA), BSA containing AGEs derived from methylglyoxal (MGO-AGEs-BSA), and A-peak-BSA diluted into 10 μg/mL with PBS-T containing 0.1% (w/v) gelatin were each added at 50 μL/well to the antigen-immobilized plate, and the PB-1 antibody diluted into 0.05 μg/mL with PBS-T containing 0.1% (w/v) gelatin was further added at 50 μL/well, stirred with a plate mixer, and then left standing at room temperature for 1 hour.
(§4) After washing, peroxidase-labeled anti-mouse IgG (H+L) polyclonal antibody, F(ab′)2 fragment (Kirkegaard & Perry Laboratories, Inc.) diluted into 0.05 μg/mL with PBS-T containing 0.1% (w/v) gelatin was added at 100 μL/well and left standing at room temperature for 1 hour.
(§5) After washing, ELISA POD substrate TMB kit (Nacalai Tesque, Inc.) was added at 100 μL/well and left standing at room temperature in the dark. Ten minutes later, color development was terminated by the addition of 2 N sulfuric acid (50 μL/well). Absorbance was measured at a dominant wavelength of 450 nm and a sub-wavelength of 650 nm with a microplate reader (Cytation 5, BioTek Instrument Inc.), and the absorbance at the sub-wavelength was subtracted from the absorbance at the dominant wavelength.
(§6) The ordinate of the graph depicts change in absorbance relative to that of control BSA defined as 1. When A-peak-BSA and Glycer-AGEs-BSA were immobilized, the novel monoclonal antibody PB-1 was also positive to Glycol-AGEs-BSA, Glycer-AGEs-BSA, and A-peak-BSA and negative to Glu-AGEs-BSA, Fru-AGEs-BSA, CEL-AGEs-BSA, CML-AGEs-BSA, GO-AGEs-BSA, and MGO-AGEs-BSA in terms of specificity.

Glycer-AGEs-BSA = Glycer-AGEs-BSA (Bos taurus, UniProt P02769); experiment: as above; conditions: A-peak-BSA or Glycer-AGEs-BSA immobilized, competitor 10 μg/mL, PB-1 0.05 μg/mL
Glycer-AGEs-BSA, sequence (P02769 25-607): as above
Experimental: as §1, §2, §3, §4, §5, §6

Fru-AGEs-BSA = Fru-AGEs-BSA (Bos taurus, UniProt P02769); experiment: as above; conditions: A-peak-BSA or Glycer-AGEs-BSA immobilized, competitor 10 μg/mL, PB-1 0.05 μg/mL
Fru-AGEs-BSA, sequence (P02769 25-607): as above
Experimental: as §1, §2, §3, §4, §5, §6

MGO-AGEs-BSA = MGO-AGEs-BSA (Bos taurus, UniProt P02769); experiment: as above; conditions: A-peak-BSA or Glycer-AGEs-BSA immobilized, competitor 10 μg/mL, PB-1 0.05 μg/mL
MGO-AGEs-BSA, sequence (P02769 25-607): as above
Experimental: as §1, §2, §3, §4, §5, §6

Glycol-AGEs-BSA = Glycol-AGEs-BSA (Bos taurus, UniProt P02769); experiment: as above; conditions: A-peak-BSA or Glycer-AGEs-BSA immobilized, competitor 10 μg/mL, PB-1 0.05 μg/mL
Glycol-AGEs-BSA, sequence (P02769 25-607): as above
Experimental: as §1, §2, §3, §4, §5, §6

Glu-AGEs-BSA = Glu-AGEs-BSA (Bos taurus, UniProt P02769); experiment: as above; conditions: A-peak-BSA or Glycer-AGEs-BSA immobilized, competitor 10 μg/mL, PB-1 0.05 μg/mL
Glu-AGEs-BSA, sequence (P02769 25-607): as above
Experimental: as §1, §2, §3, §4, §5, §6

CML-AGEs-BSA = CML-AGEs-BSA (Bos taurus, UniProt P02769); experiment: as above; conditions: A-peak-BSA or Glycer-AGEs-BSA immobilized, competitor 10 μg/mL, PB-1 0.05 μg/mL
CML-AGEs-BSA, sequence (P02769 25-607): as above
Experimental: as §1, §2, §3, §4, §5, §6

A-peak-BSA = A-peak-BSA (Bos taurus, UniProt P02769); experiment: as above; conditions: A-peak-BSA or Glycer-AGEs-BSA immobilized, competitor 10 μg/mL, PB-1 0.05 μg/mL
A-peak-BSA, sequence (P02769 25-607): as above
Experimental: as §1, §2, §3, §4, §5, §6

GO-AGEs-BSA = GO-AGEs-BSA (Bos taurus, UniProt P02769); experiment: as above; conditions: A-peak-BSA or Glycer-AGEs-BSA immobilized, competitor 10 μg/mL, PB-1 0.05 μg/mL
GO-AGEs-BSA, sequence (P02769 25-607): as above
Experimental: as §1, §2, §3, §4, §5, §6

T1 sequence (P02769 25-607): as above

specificity: reactivity with CEL-AGEs-BSA (CEL-AGEs-BSA): negative | specificity: reactivity with Glycer-AGEs-BSA (Glycer-AGEs-BSA): positive | specificity: reactivity with Fru-AGEs-BSA (Fru-AGEs-BSA): negative | specificity: reactivity with MGO-AGEs-BSA (MGO-AGEs-BSA): negative | specificity: reactivity with Glycol-AGEs-BSA (Glycol-AGEs-BSA): positive | specificity: reactivity with Glu-AGEs-BSA (Glu-AGEs-BSA): negative | specificity: reactivity with CML-AGEs-BSA (CML-AGEs-BSA): negative | specificity: reactivity with A-peak-BSA (A-peak-BSA): positive | specificity: reactivity with GO-AGEs-BSA (GO-AGEs-BSA): negative
B1: PB-1: mouse monoclonal antibody raised against A-peak-BSA; heavy-chain variable region SEQ ID NO 18, light-chain variable region SEQ ID NO 22 (antibody, listed as Mus musculus, V domains shown)
VH: EVRLQQSGPELVKPGTSVKISCKASGYSFTGYYMHWVKQSPVKSLEWIGRIIPYNGATSYNQNFKDKASLTVDKSSRTAYMDLHSLTSEDSAVYYCARSRYYGRAPYYFDYWGQGTTLTVSS
VL: DVVVTQTPLSLPVSLGDQASISCRSSQSIVHSNGNTYLEWYLQKPGQSPKLLIYKVSNRFSGVPDRISGSGSGTDFTLKISRVEAGDLGVYSCFQGSHVPFTFGSGTKLEIK
change in absorbance of HRP-labeled SJ-5 binding to A-peak-BSA (cross-competition) [1]: decreased in a PB-1 concentration-dependent manner
